We go through one molecule from US20040053368A1 (published 2004).

The experiment addresses T1, bovine serum albumin (BSA, Sigma) (bovine, UniProt P02769 25-607).
T1 construct: Control protein coated on the ELISA plate
In words: ELISA, serum albumin coated at 1 mg/ml, detected with anti-human FNCBD monoclonal antibody. On the procedure:
By the enzyme-linked immunosorbent assay (ELISA), binding ability of the FNCBD-bFGF and the FNCBD-EGF to bovine native collagen (I-AC, Koken), bovine atelocollagen (I-PC, Koken), and bovine serum albumin (BSA, Sigma) was evaluated.
First, 1 mg/ml solutions of native collagen, atelocollagen, and serum albumin were respectively dispensed in the wells of a flat-bottom 96-well ELISA plate at 200 μl/well, and the plate was allowed to stand overnight at 4° C.
The wells were washed three times with PBS containing 0.05% Tween 20, and 100 μl of anti-human FNCBD monoclonal antibody (Takara Shuzo) diluted 1:1000 was dispensed in the wells and allowed to stand at room temperature for 1 hour. The wells were washed three times with 0.05% Tween 20/PBS, and 100 μl of peroxidase-labelled anti-mouse immunoglobulin polyclonal antibody (Dako Japan) diluted 1:1000 was dispensed in the wells and allowed to stand at room temperature for 1 hour. After washing the wells 6 times with 0.05% Tween 20/PBS, 0.1M citrate buffer, pH 4.7 containing 1 mg/ml o-phenylenediamine and 0.03% hydrogen peroxide was dispensed in the wells and allowed to stand for 10 minutes. The reaction was then terminated by addition of 50 μl of 4N sulfuric acid and absorption at 492-690 nm was measured.

T1 sequence (P02769 25-607 limits assumed): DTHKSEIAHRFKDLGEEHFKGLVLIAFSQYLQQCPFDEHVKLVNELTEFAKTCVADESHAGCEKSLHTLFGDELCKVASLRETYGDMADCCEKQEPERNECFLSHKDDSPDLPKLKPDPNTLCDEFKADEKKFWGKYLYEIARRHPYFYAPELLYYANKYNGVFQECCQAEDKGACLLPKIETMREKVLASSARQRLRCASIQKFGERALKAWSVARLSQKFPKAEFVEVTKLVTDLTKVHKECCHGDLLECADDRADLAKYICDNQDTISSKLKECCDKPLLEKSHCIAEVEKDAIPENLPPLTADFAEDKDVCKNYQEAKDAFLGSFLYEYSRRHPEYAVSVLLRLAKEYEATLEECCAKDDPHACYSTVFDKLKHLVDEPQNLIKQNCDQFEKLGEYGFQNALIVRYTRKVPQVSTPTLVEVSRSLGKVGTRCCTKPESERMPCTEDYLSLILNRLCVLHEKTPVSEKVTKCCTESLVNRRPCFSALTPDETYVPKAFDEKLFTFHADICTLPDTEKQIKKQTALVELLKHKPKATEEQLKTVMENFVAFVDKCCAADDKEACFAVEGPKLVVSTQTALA

B1: human FNCBD/human EGF hybrid polypeptide (FNCBD-EGF) (other)
chain: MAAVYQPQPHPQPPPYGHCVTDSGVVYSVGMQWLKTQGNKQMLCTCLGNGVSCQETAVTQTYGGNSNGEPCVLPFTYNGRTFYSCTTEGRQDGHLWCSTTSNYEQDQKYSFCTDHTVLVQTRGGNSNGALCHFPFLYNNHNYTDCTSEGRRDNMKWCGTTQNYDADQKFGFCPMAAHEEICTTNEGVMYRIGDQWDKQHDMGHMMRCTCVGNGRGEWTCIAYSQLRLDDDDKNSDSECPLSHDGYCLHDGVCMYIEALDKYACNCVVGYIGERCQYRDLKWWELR
notes: also called FN484-EGF; FNCBD/EGF hybrid polypeptide
With B1, the binding result is reported as “no binding”.
